Reference: patent US20240240209A1, “SYNTHESIS OF ENANTIOPURE CIS-A-IRONE FROM A RENEWABLE CARBON SOURCE” (Agency for Science, Technology and Research, priority 2021, published 2024)
“Also recorded” adds a separate entry of the source.

Test: Cell lysate reaction of pMT enzymes with psi-ionone, irones quantified by HS-SPME-GCMS
Assay type: biochemical
Details: for irone production / methyltransferase activity towards psi-ionone (in words): cell lysate reaction, vs parent or control; for fold change in cis-α-irone produced: AUC vs non-mutated (=1)
Method: Using the structure of pMT1 in complex with the cofactor S-adenosyl-L-homocysteine (SAH) and the substrate teleocidin A1 (PDB id: 5GM2) as a template, pMT1 bound to each of the four isomers of α-irone was modelled with the aim of identifying amino acid residues that could be critical to increase cis-α-irone or decrease trans-α-irone production (FIGS. 2d and 2e). […] Site-directed mutagenesis of the 24 residues was carried out with degenerative primers. Subsequently, the mutants of each site were pooled together, and examined if the activity or product-selectivity of the pooled mutants were increased (FIG. 8). This reduced the number of screening reactions to 24, which is manageable when a high-throughput enzymatic assay is not available. […] One residue was chosen and subjected to site-saturation mutagenesis by using degenerative primers containing NNN or NNK. The plasmid library was then transformed into E. coli BL21 (DE3) cells and plated on agar plate containing autoinduction media^19. […] Subsequently, the colonies were collected and resuspended in phosphate saline buffer. Equal number of cells was taken for lysis and cell lysate reactions were carried out in capped SPME-GC vials at 28° C. for 2 days. HS-SPME-GCMS analysis was used to quantify the amount of irones produced by each pooled-colony reaction. […] 24 residues including the control Gly85 (G85m) were subjected to site-saturation mutagenesis, using pMT1 as the template. […] The amount of cis-α-irone produced was estimated based on the area under the gas chromatogram curve (AUC). The fold change is calculated by comparing the AUC of cis-α-irone produced by the mutant enzyme to that of non-mutated.
For each pMT mutant, it was transformed into BL21 and grown in autoinduction media with 5 mM lactose at 20° C. for 36 hrs. Then, cells were pelleted and concentrated 10 times by adding 1 ml of PBS. The OD600 was measured and 40*600 OD*ul cells were transferred into a new 1.5 ml tube. The cells were spun down and resuspended in 600 μl of lysis buffer (1×DNase buffer, 150 mM NaCl, 0.5% glycerol, 1 mg/ml lysozyme and 20U of DNasel). The cells were incubated for 2 hrs at 20° C. with shaking at 300 rpm. Following that, 2 cycles of freeze-thaw was done to completely lyse the cells. At the end of the 2nd thawing, the cell lysate was used to setup a 1 ml reaction in 2 ml GC vials. The reaction consisted of 50 mM Tris (pH7), 10 mM MgCl2, 60 mM NaCl, 0.2 mM SAM and 10 mg/L of psi-ionone and caryophyllene each. To this, 500 μl of cell lysate was added while the remaining 100 μl was used for SDS-PAGE to analyze the total and soluble protein expression. The reaction was incubated for 2 days at 28° C., 300 rpm prior to extraction of cis-α-irone with 500 μl hexane. From this, 20 μl of organic layer was taken into 180 μl hexane for GCMS analysis.
For the mutant pMT activity screening, the reactants and products were analyzed by head space solid phase microextraction (HS-SPME) coupled with an Agilent 5977B gas chromatography (GC) system equipped with Agilent DB-5 ms column (30 m×250 μm×0.25 μm) and mass spectrometry (MS) with high efficiency source. The reaction mixtures were carried out in SPME vials which were incubated at 60° C. for 20 mins to allow the release of volatile compounds. The absorbent fiber (50/30 μm divinylbenzol/carboxen/polydimethyl-SPME fiber, SUPELCO) was then exposed to the headspace of the vial for 20 mins. The extracted analytes were desorbed at the GC inlet at 250° C. for 1 min and injected into GC with a split ratio of 200:1. The GC oven temperature increased from 50° C. to 140° C. at a rate of 10° C./min and held at 140° C. for 10 min. Subsequently, the temperature was increased to 320° C. at a rate of 60° C./min and held at 320° C. for 2 mins.

B1: pMT11: pMT1 with Y200F S182E L273V L180A A202L Y65F C156D T91P (protein)
chain: MPQEARTPQQQVTADEVGDWYDKFGEVYHLTLGESVHCGLWFPPDAPVPQDMELVTMSSQAQDRFTDYLIETLDPKAGQHLLDIGCGTGRPALKAARQRGIAVTGVAVSKEQIAAANRLAAGHGLTERLTFEVADAMRLPYEDESFDCAWAIESLDHMDRAKALGEAWRVLKPGGDLLVAEEVVTEELTEPETALFETLFALNVPPRLGEFFDIVSGAGFHTLSLKDLSANLAMTMNVFALGVYSRRAEFTERFGAEFVDGLLAGLGSAQETVIRKTRFFMATLRKPAV
modifications: Modified from pMT1
notes: pMT1 with Y200F S182E L273V L180A A202L Y65F C156D T91P
irone production / methyltransferase activity towards psi-ionone (in words): improved cis-α-irone production both by the fold change and percentage

B2: pMT3: pMT1 with Y200F S182E (protein)
chain: MPQEARTPQQQVTADEVGDWYDKFGEVYHLTLGESVHCGLWFPPDAPVPQDMELVTMSSQAQDRYTDYLIETLDPKAGQHLLDIGCGTGRTALKAARQRGIAVTGVAVSKEQIAAANRLAAGHGLTERLTFEVADAMRLPYEDESFDCAWAIESLCHMDRAKALGEAWRVLKPGGDLLVLEEVVTEELTEPETALFETLFAANVPPRLGEFFDIVSGAGFHTLSLKDLSANLAMTMNVFALGVYSRRAEFTERFGAEFVDGLLAGLGSAQETLIRKTRFFMATLRKPAV
modifications: Modified from pMT1
notes: pMT1 with Y200F S182E
cis-α-irone content (percentage of cis-α-irone in the irone mixture) (cell extracts with psi-ionone): 74% | irone production / methyltransferase activity towards psi-ionone (in words): significant increase in cis-α-irone was detected; also recorded: predominantly 1R5S was produced | fold change in cis-α-irone produced (pMT2_S182 mutants): 5.4 | fold change in cis-α-irone produced (pMT3_E153 mutants): 1.0 | fold change in cis-α-irone produced (pMT3_L273 mutants): 1.0 | improvement of total turnover number (TTN) (vs pMT1, TTN = cis-α-irone produced / soluble pMT enzyme): more than 1,000 fold

B3: pMT14: pMT13 with E197R (protein)
chain: MPQEARTPQQQVTADEVGDWYDKFGEVYHLTLGESVHCGLWFPPDAPVPQDMELVTMSSQAQDRFTDYLIETLDPKAGQHLLDIGCGTGRPALKAARQRGIAVTGVAVSKEQIAAANRLAAGHGLTERLTFEVADAMRLPYEDESFDCAWAIESLDHMDRAKALGEAWRVLKPGGDLLVAEEVVTEELTEPETALFRTLFALNVPPRLGEFFDIVSGAGFHTLSLKDLSADLAMTMNVFALGVAARRAEFTERFGAEFVDGLLAGLPSAQETVIRKTRFFMATLRKPAV
modifications: Modified from pMT1
notes: pMT13 with E197R
irone production / methyltransferase activity towards psi-ionone (in words): reduced the fold change of cis-α-irone to a similar level as pMT10

B4: P191S: pMT12 with P191S (protein)
chain: MPQEARTPQQQVTADEVGDWYDKFGEVYHLTLGESVHCGLWFPPDAPVPQDMELVTMSSQAQDRFTDYLIETLDPKAGQHLLDIGCGTGRPALKAARQRGIAVTGVAVSKEQIAAANRLAAGHGLTERLTFEVADAMRLPYEDESFDCAWAIESLDHMDRAKALGEAWRVLKPGGDLLVAEEVVTEELTESETALFETLFALNVPPRLGEFFDIVSGAGFHTLSLKDLSADLAMTMNVFALGVYSRRAEFTERFGAEFVDGLLAGLGSAQETVIRKTRFFMATLRKPAV
modifications: Modified from pMT1
in-vitro production of cis-α-irone (in words) (single mutations vs parent (pMT7 or pMT12)): moderate increase

B5: pMT13: pMT12 with Y244A S245A G267P (protein)
chain: MPQEARTPQQQVTADEVGDWYDKFGEVYHLTLGESVHCGLWFPPDAPVPQDMELVTMSSQAQDRFTDYLIETLDPKAGQHLLDIGCGTGRPALKAARQRGIAVTGVAVSKEQIAAANRLAAGHGLTERLTFEVADAMRLPYEDESFDCAWAIESLDHMDRAKALGEAWRVLKPGGDLLVAEEVVTEELTEPETALFETLFALNVPPRLGEFFDIVSGAGFHTLSLKDLSADLAMTMNVFALGVAARRAEFTERFGAEFVDGLLAGLPSAQETVIRKTRFFMATLRKPAV
modifications: Modified from pMT1
notes: pMT12 with Y244A S245A G267P
irone production / methyltransferase activity towards psi-ionone (in words): maintained the percentage of cis-α-irone produced while further improving the absolute amount produced
